Data as given in the supplement of paper PMC10724198.
± gives the standard deviation of the averaged measurements.

Test system: Saccharomyces cerevisiae
Test: protein stability index of tFT-peptide fusion (C-terminal peptide) (PSI (0-1 scale)); higher = more stable (slower turnover)
Conditions: genetic background: wild type; temperature: 30 C
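Further: PSI is a weighted mean of sequencing reads over stability bins, variants kept only with over 10 reads, mCherry proximal and sfGFP distal, peptide attached via GGGS linker.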

Sequence YESIVLYPEMYL has a protein stability index of 0.714 ± 0.2.
Sequence AFRKRTFKQESC has a protein stability index of 0.642 ± 0.0098.
For PILPTSAPSDPR, the protein stability index was 0.724 ± 0.12.
Work on TIKNKKRKPKKK yielded a protein stability index of 0.702 ± 0.044.
CPRRGSHLARLL was tested, and the protein stability index was 0.621 ± 0.038.
In the case of PPPPSLVPPSPL, the protein stability index is reported as 0.677 ± 0.063.
VMLWAGLFGSSV was tested, and the protein stability index was 0.634 ± 0.018.
APARPPVTLSTN showed a protein stability index of 0.671 ± 0.013.
Work on TPWGPGAAAAPP yielded a protein stability index of 0.684 ± 0.043.
SPPPPLPPPLPP was tested, and the protein stability index was 0.52453 ± 0.00047.
NRGYRKDDKGMR showed a protein stability index of 0.689 ± 0.042.
In the case of LGSSPPPTLPPP, the protein stability index is reported as 0.701 ± 0.031.
Sequence LGVLGGGRRFGV has a protein stability index of 0.715 ± 0.019.
Work on SDDPPLSLVISL yielded a protein stability index of 0.754 ± 0.02.
LLFDIYSPTCPS gave a protein stability index of 0.628 ± 0.02.
RRAPLRNTSRHR gave a protein stability index of 0.663 ± 0.021.
For FCVFFSGLCCWV, the protein stability index was 0.55 ± 0.022.
WPYEPGSSIVNG gave a protein stability index of 0.717 ± 0.01.
With LNPPYLAPPPPF the protein stability index was 0.739 ± 0.045.
Work on PLPLPSTALPPS yielded a protein stability index of 0.632 ± 0.063.
With QKKKILNKQRTK the protein stability index was 0.681 ± 0.033.
Sequence APPALPPLSPFP has a protein stability index of 0.705 ± 0.091.
PPPPRPPATPFP gave a protein stability index of 0.676 ± 0.052.
Work on PLPQVLYPPPPS yielded a protein stability index of 0.6905 ± 0.0045.
Work on LVSCPPPPAPPP yielded a protein stability index of 0.659 ± 0.06.
Work on KGEGRNRRGVPR yielded a protein stability index of 0.675 ± 0.019.
QDDTASMVVMIR gave a protein stability index of 0.697 ± 0.034.
For GWSVGQSEMNTY, the protein stability index was 0.73 ± 0.056.
Sequence HPHRSAIIAGNH has a protein stability index of 0.72 ± 0.0083.
Sequence MGYPGFGRVPYV has a protein stability index of 0.723 ± 0.053.
With TTFHLCLFQKSS the protein stability index was 0.584 ± 0.0071.
For ELNENKKKKEHL, the protein stability index was 0.714 ± 0.12.
Sequence GGGVSFWLGAVA has a protein stability index of 0.647 ± 0.0081.
For NKNKDNNEIVKK, the protein stability index was 0.677 ± 0.068.
For ILRSVIFMDACV, the protein stability index was 0.629 ± 0.018.
For ARSVHGSLSLVM, the protein stability index was 0.633 ± 0.042.
MCLWMGFWFACF showed a protein stability index of 0.537 ± 0.024.
PGPPSPPPPLYP showed a protein stability index of 0.6783 ± 0.0056.
In the case of RNKRKKNKDKIK, the protein stability index is reported as 0.677 ± 0.051.
VCGCWWWCGVGW gave a protein stability index of 0.657 ± 0.043.
With GLREGRRRSNDQ the protein stability index was 0.653 ± 0.12.
SPPLPKFPPAIP gave a protein stability index of 0.689 ± 0.021.
Sequence SNVHSYPEIRPG has a protein stability index of 0.681 ± 0.01.
Work on IPRCSPAGVSSY yielded a protein stability index of 0.696 ± 0.064.
With PPPTPHPLRRTP the protein stability index was 0.735 ± 0.069.
Work on SSRSQTVRTFAL yielded a protein stability index of 0.689 ± 0.068.
For SVLAIASVIGCL, the protein stability index was 0.598 ± 0.032.
Sequence PPAPPPPTGLCL has a protein stability index of 0.755 ± 0.092.
Sequence SPPPPSCRHSPL has a protein stability index of 0.741 ± 0.011.
Sequence PLPSAPLLPPPP has a protein stability index of 0.686 ± 0.056.
Work on FFGWYFCFSGVS yielded a protein stability index of 0.598 ± 0.023.
AGGGKGGGGGEK gave a protein stability index of 0.649 ± 0.029.
With PSDLPPPTPLLA the protein stability index was 0.63 ± 0.022.
LICVSTLAPSGQ was tested, and the protein stability index was 0.676 ± 0.0078.
AGGVCHVSSLLA showed a protein stability index of 0.64 ± 0.021.
Work on FPPPPPPLPPGS yielded a protein stability index of 0.687 ± 0.073.
QKTYHATQTRRR gave a protein stability index of 0.6839 ± 0.00099.
GRYRRRLPLCRG gave a protein stability index of 0.663 ± 0.055.
PQSKWLTTFRQK gave a protein stability index of 0.713 ± 0.095.
PPPPPPLSPCPS showed a protein stability index of 0.704 ± 0.099.
KKKHKKKKKKKE was tested, and the protein stability index was 0.676 ± 0.073.
Sequence IGLTVICHFMNV has a protein stability index of 0.576 ± 0.05.
With PSPPAPPPSPLP the protein stability index was 0.823 ± 0.15.
TIETKVNSKDDS showed a protein stability index of 0.735 ± 0.031.
In the case of RGKATREAGKKR, the protein stability index is reported as 0.7916 ± 0.0028.
Work on PPPLLPPLDAPS yielded a protein stability index of 0.721 ± 0.083.
Work on LLLSQSSFCLTC yielded a protein stability index of 0.637 ± 0.046.
In the case of GARVGDRALASG, the protein stability index is reported as 0.7089 ± 0.0069.
With VFTFGAGFGARL the protein stability index was 0.801 ± 0.022.
In the case of GGGVGGGVGQRG, the protein stability index is reported as 0.705 ± 0.086.
For PLALPLHLPLPP, the protein stability index was 0.667 ± 0.034.
AFYERLQEWIRA gave a protein stability index of 0.613 ± 0.014.
With PPPPSLPPPLPL the protein stability index was 0.698 ± 0.022.
For FPRRPHVESHIR, the protein stability index was 0.7359 ± 0.0042.
Sequence LPSLLYIFPPLS has a protein stability index of 0.6975 ± 0.0068.
Sequence VGREVSYGRGGD has a protein stability index of 0.655 ± 0.031.
With LVCGIDSLVRLV the protein stability index was 0.57 ± 0.029.
For CGWMVSAGRLGG, the protein stability index was 0.655 ± 0.022.
Sequence PDCVLSDENDAG has a protein stability index of 0.658 ± 0.0076.
In the case of LPVDPPLGGHPT, the protein stability index is reported as 0.655 ± 0.03.
In the case of AARGILLASRRD, the protein stability index is reported as 0.739 ± 0.092.
LGAHRPLLSVLH was tested, and the protein stability index was 0.661 ± 0.037.
LPPAAPPPPIPA was tested, and the protein stability index was 0.599 ± 0.0079.
For HPPHLSTPPYPP, the protein stability index was 0.722 ± 0.047.
Work on FFQSSLLFCPWR yielded a protein stability index of 0.712 ± 0.011.
For NSWCRFLRRCLV, the protein stability index was 0.609 ± 0.074.
With LCLREPTITTQW the protein stability index was 0.786 ± 0.3.
Work on GPFGCLRSLIRG yielded a protein stability index of 0.642 ± 0.097.
For GCRELVRCVMLG, the protein stability index was 0.669 ± 0.083.
GGVRRRSAVGVR was tested, and the protein stability index was 0.65129 ± 0.00017.
GSGTRNLLFIKS showed a protein stability index of 0.6708 ± 0.001.
EFFVLVHLVDPK showed a protein stability index of 0.638 ± 0.041.
SGIWLKRVTMYR was tested, and the protein stability index was 0.7027 ± 0.0047.
Work on IKKDSRQRKRDE yielded a protein stability index of 0.648 ± 0.0084.
RRHKNNRLTVCR showed a protein stability index of 0.625 ± 0.098.
Work on YTGRFDSSDIWY yielded a protein stability index of 0.818 ± 0.057.
Sequence PAPPPLPSSSPP has a protein stability index of 0.696 ± 0.0019.
With RASGNHVNQVDC the protein stability index was 0.719 ± 0.036.
In the case of RATLPPSAASLP, the protein stability index is reported as 0.677 ± 0.1.
In the case of RRLRRALPPQLA, the protein stability index is reported as 0.577 ± 0.037.
In the case of ICVAVESRVSRG, the protein stability index is reported as 0.628 ± 0.046.
In the case of PRPLLVPPLFKS, the protein stability index is reported as 0.768 ± 0.031.
SPKGHGEGGGSK showed a protein stability index of 0.6779 ± 0.00078.
With PLPPSSSPSSLP the protein stability index was 0.71 ± 0.077.
For GRGGLGWGEWDR, the protein stability index was 0.699 ± 0.03.
PPPPSPRPRPAP gave a protein stability index of 0.657 ± 0.025.
In the case of ELCFFISLVPDF, the protein stability index is reported as 0.642 ± 0.007.
In the case of QKNMVKKVENTR, the protein stability index is reported as 0.7637 ± 0.0067.
In the case of VLTVVRVGVGKQ, the protein stability index is reported as 0.676 ± 0.051.
With GRRKGGRKAREC the protein stability index was 0.588 ± 0.017.
Sequence WGGWGVGGRVLW has a protein stability index of 0.675 ± 0.066.
For GKRGGTGAGEKR, the protein stability index was 0.66 ± 0.071.
In the case of FFSFVVPCFFFC, the protein stability index is reported as 0.513 ± 0.022.
In the case of VCGLLGGVWLCL, the protein stability index is reported as 0.611 ± 0.021.
Work on GGCSLRWARCRW yielded a protein stability index of 0.686 ± 0.078.
With GCGGVWGRSEKY the protein stability index was 0.684 ± 0.019.
With HLPPFSGIHLTP the protein stability index was 0.719 ± 0.011.
CSRTSKKMSIGG gave a protein stability index of 0.613 ± 0.019.
For YLLLPPPPPPSL, the protein stability index was 0.722 ± 0.0098.
YIRSYRITKREE showed a protein stability index of 0.656 ± 0.035.
Sequence PLWVFFRFSPNL has a protein stability index of 0.662 ± 0.01.
DGFGVARGVSWG gave a protein stability index of 0.752 ± 0.035.
With KVFHTDSNPNNK the protein stability index was 0.663 ± 0.016.
EVSGRCRRPDDQ showed a protein stability index of 0.679 ± 0.041.
With SASRSLFLSRSP the protein stability index was 0.6703 ± 0.0023.
In the case of LAGVSSPLPPPP, the protein stability index is reported as 0.685 ± 0.025.
APLSLPPPPSPH gave a protein stability index of 0.696 ± 0.033.
SCPPRLVFPRPS showed a protein stability index of 0.66 ± 0.034.
In the case of FGFGYAVSFLVG, the protein stability index is reported as 0.6 ± 0.081.
Work on LLPLLPPAPPSP yielded a protein stability index of 0.687 ± 0.024.
Sequence PSDSRSTPPTPD has a protein stability index of 0.698 ± 0.033.
ITRSEEAKWLCA gave a protein stability index of 0.685 ± 0.045.
For VGGVWGLGVRPR, the protein stability index was 0.693 ± 0.029.
RDFLLLASHLRF was tested, and the protein stability index was 0.764 ± 0.056.
DSPPMTALITDF was tested, and the protein stability index was 0.697 ± 0.019.
HPPPDPLPSRPS gave a protein stability index of 0.765 ± 0.093.
Work on MGVGINSGDKLC yielded a protein stability index of 0.667 ± 0.11.
Work on AVGGDGGAWVGP yielded a protein stability index of 0.7231 ± 0.0022.
In the case of VRHGERGGGLGD, the protein stability index is reported as 0.782 ± 0.06.
EVCGSGCGCGLC gave a protein stability index of 0.74 ± 0.11.
VNRYSKETDAVF gave a protein stability index of 0.6719 ± 0.0043.
In the case of PPPLTYPTSPPS, the protein stability index is reported as 0.661 ± 0.019.
RFPLLPLLRPPP was tested, and the protein stability index was 0.6494 ± 0.0031.
SLSAQTISDLSM gave a protein stability index of 0.68 ± 0.049.
Work on PLSLSPLPSPPL yielded a protein stability index of 0.704 ± 0.041.
Sequence LHAPFPLPPPPP has a protein stability index of 0.647 ± 0.026.
